Source: the supplement of paper PMC9732359
± gives the uncertainty stated by the source.

Test: protein stability index of a GFP-peptide fusion (yeast GPS) (PSI 1-4); higher = more stable; sorted into four equal gates, so the index is relative within each strain
Method in brief: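 For each peptide, the protein stability index sums the read frequency in every gate after multiplying it by the gate number. Read frequencies came from plasmids that were PCR-amplified from each gate and Illumina-sequenced, with reads assigned to strains by barcodes. The gates were four equal bins of GFP/Cherry fluorescence ratio applied to mid-log yeast in leucine-free medium carrying a pooled library of tiled 17-residue yeast protein peptides fused downstream of GFP on a Cherry-expressing plasmid.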

Sequence	protein stability index (doa10∆)	protein stability index (pdr5∆)	protein stability index (san1∆)	protein stability index (ubr1∆)
IWDSQKFFIMIVKGNII [POP4]	1.37 ± 0.069	1.44 ± 0.096	1.38 ± 0.15	1.32 ± 0.083
DGTSTEKTFLHLPCTIE [RPN8]	2.7 ± 0.1	1.78 ± 0.055	2.1 ± 0.065	1.41 ± 0.044
FTLKQWNRLTISVTDTE [COR1]	1.32 ± 0.049	1.22 ± 0.04	1.14 ± 0.072	1.12 ± 0.047
YLAENPDPNFENSIGYN [PRP8]	3.28 ± 0.065	3.08 ± 0.061	3.12 ± 0.088	3.19 ± 0.054
GLTNWAAAYATGLLIAR [RPL5]	1.39 ± 0.18	1.26 ± 0.084	1.14 ± 0.13	1.1 ± 0.027
VGDVVGGALDNPFEDDM [BRN1]		3.37 ± 0.15	3.58 ± 0.21	3.16 ± 0.11
RMRIFASNEVIAKSRYW [RPL20A]	2 ± 0.049	2.57 ± 0.065	2.54 ± 0.068	2.53 ± 0.035
ALLIEVFTALLRLFINE [ITC1]	2.11 ± 0.087	1.53 ± 0.076	1.42 ± 0.097	1.24 ± 0.051
LHKLELKAKNQEEEGEL [DSN1]	3.14 ± 0.17	3.29 ± 0.17	3.37 ± 0.14	3.25 ± 0.1
EQWITIESQMRDLILTE [PRP8]	2.78 ± 0.088	3.1 ± 0.092	3.08 ± 0.073	3.14 ± 0.077
NAGTEKEKESKKDSKPA [YLR335W/NUP2]	3.31 ± 0.084	3.15 ± 0.074	3.54 ± 0.056	3.42 ± 0.05
AEEAAAEEEEESDDDMG [RPP0]	3.62 ± 0.12	2.94 ± 0.15	3.23 ± 0.056	3.27 ± 0.068
NAAGNTPDATKIKAILE [RPP2A]	3.13 ± 0.089	3.32 ± 0.092	2.99 ± 0.085	3.19 ± 0.054
DPLAKVNVLLQSYFSQL [BRR2]	1.28 ± 0.049	1.78 ± 0.054	1.58 ± 0.092	1.54 ± 0.05
AKLNYKNLNPASSSPSS [ECM29]	3.25 ± 0.071	3.06 ± 0.08	2.79 ± 0.11	3.04 ± 0.051
PFKRKMLLVDIIPSRMG [REC8]	1.81 ± 0.069	1.77 ± 0.072	2.26 ± 0.11	2.15 ± 0.059
EKKLMQDNKQLYQIWIV [YDL116W/NUP84]	2.06 ± 0.075	1.83 ± 0.078	2.72 ± 0.15	1.44 ± 0.072
WYKVAKNVGNKSPEQCI [SWI3]	2.98 ± 0.097	3.27 ± 0.07	3.07 ± 0.093	3.08 ± 0.05
HLVMRAISLGLLKGSID [RPN9]	2.04 ± 0.095	2.55 ± 0.14	1.58 ± 0.18	1.79 ± 0.16
DEVNDRSDISDSEGGLF [PCI8]	3.33 ± 0.28	3.08 ± 0.16	3.46 ± 0.072	3.06 ± 0.12
SIGEPATQMTLNTFHFA [RPO21]	2.63 ± 0.091	3.04 ± 0.11	3.04 ± 0.15	2.75 ± 0.12
IDHSDESNRQSVIVDSK [ESC2]	3.18 ± 0.13	3.27 ± 0.077	3.08 ± 0.093	3.51 ± 0.15
LRRLEILVPDLYHLVIM [ECM29]	1.59 ± 0.054	1.54 ± 0.036	1.46 ± 0.065	1.61 ± 0.032
CLDQMTEQFCATLNYID [SRB7]	2.39 ± 0.043	2.87 ± 0.047	2.99 ± 0.049	2.65 ± 0.039
STAFVPTIEYVQCPTVI [ARP9]	1.68 ± 0.065	1.97 ± 0.048	1.71 ± 0.08	1.88 ± 0.052
KALILAPTRELVQQIQK [PRP28]	2.67 ± 0.087	2.82 ± 0.055	2.75 ± 0.073	3 ± 0.069

Sequence	protein stability index (doa10∆)	protein stability index (pdr5∆)	protein stability index (san1∆)	protein stability index (ubr1∆)
GFETSKNIKIIMATNRL [RPT6]	2.87 ± 0.15	2.54 ± 0.084	2.36 ± 0.066	3.28 ± 0.063
AFTCFCIKKIMENNEPA [SRB8]	2.21 ± 0.062	2.64 ± 0.077	2.38 ± 0.09	2.15 ± 0.079
SLDEILLPANLLSLNSV [SRP68]	3.13 ± 0.058	3.15 ± 0.058	3.14 ± 0.05	3.08 ± 0.031
PYGSFHQQQLQQPHYIQ [DSN1]	2.76 ± 0.063	2.98 ± 0.052	2.92 ± 0.044	3.1 ± 0.048
DHGDGILLIDSEIARTY [RPN9]	2.73 ± 0.22	3.03 ± 0.3	3.29 ± 0.17	3.17 ± 0.24
KLLNDLALENGEITKTE [NUT1]	3.13 ± 0.15	3.09 ± 0.22	2.78 ± 0.2	3.18 ± 0.086
LEDPYKYHYKEEWLNTK [CSN9]	2.88 ± 0.084	3.2 ± 0.083	2.83 ± 0.065	3.09 ± 0.072
SKRWAQRTLSKSFYSTA [CYT1]	1.69 ± 0.052	2.32 ± 0.054	2.19 ± 0.063	2.22 ± 0.06
SIDCLLILILVISFGQP [SWI1]	1.85 ± 0.043	1.64 ± 0.034	1.52 ± 0.071	1.59 ± 0.029
YNGRGARERKTATYNDN [SNF2]	3 ± 0.069	2.54 ± 0.074	2.69 ± 0.074	2.69 ± 0.071
DSVFSFGPKKENRKKDE [YLR335W/NUP2]	3.01 ± 0.091	2.86 ± 0.078	2.9 ± 0.048	3.03 ± 0.056
VYNLALKCAERQLTSME [NUT1]	2.38 ± 0.073	2.2 ± 0.052	2.09 ± 0.07	2.31 ± 0.029
LGKQSSSLLSRLISSKM [FAS2]	2.98 ± 0.065	2.94 ± 0.065	3.02 ± 0.078	2.7 ± 0.048
KKVVKKAFEERHQAGKN [RPL27A]		3.83 ± 0.22		
LNENARELEQIKPKIAL [SNF12]	3.23 ± 0.3	3 ± 0.23	2.64 ± 0.25	
TIETFNEAALVVNITHH [RPB5]	1.69 ± 0.11	1.92 ± 0.061	1.64 ± 0.16	1.58 ± 0.13
IDDKTQNDELTMGMRAL [DIS3]	2.74 ± 0.083	2.83 ± 0.068	2.87 ± 0.058	3 ± 0.059
TKSMVKIAEQYSKRIEE [RPN11]	2.32 ± 0.075	1.94 ± 0.052	2.03 ± 0.1	2.28 ± 0.067
NVNLDDYPDDSGWTPFH [NAS6]	3 ± 0.091	2.91 ± 0.069	2.92 ± 0.061	2.96 ± 0.066
TSQMDLARDTPSANNSS [RRP4]	1.86 ± 0.042	1.46 ± 0.064	1.91 ± 0.077	1.51 ± 0.045
LGLLLPIAASTDLPIET [RPN1]	1.67 ± 0.049	2 ± 0.065	1.79 ± 0.076	2.17 ± 0.055
KNLVKVLESRVNARDIP [CSN12]		1.94 ± 0.19	2.03 ± 0.2	1.76 ± 0.16
SKPVLIVGQKNLNRAFN [DIS3]	3.08 ± 0.11	2.8 ± 0.1	2.77 ± 0.055	2.8 ± 0.088
SYNLEYIESKFCPGEIV [YMR129W/POM152]	3.15 ± 0.13	3.21 ± 0.19	3.12 ± 0.14	3.21 ± 0.096
ENANADLENKFNRLKKQ [YIL149C/MLP2]	3.06 ± 0.067	3.07 ± 0.057	3.09 ± 0.068	3 ± 0.037
TESPLKTVDSSIQPIES [SSN2]	2.99 ± 0.066	2.93 ± 0.053	2.91 ± 0.053	2.93 ± 0.03

Sequence	protein stability index (doa10∆)	protein stability index (pdr5∆)	protein stability index (san1∆)	protein stability index (ubr1∆)
IFERMIEKCLKASELKL [RPN2]	2.17 ± 0.15	2.21 ± 0.099		1.85 ± 0.079
LREVVELPLLSPERFAT [RPT1]	2.13 ± 0.084	2.54 ± 0.07	2.47 ± 0.1	2.33 ± 0.11
FGSGTQNNNTLGGGGLF [YGR119C/NUP57]	3.37 ± 0.083	2.94 ± 0.089	3.07 ± 0.061	3.11 ± 0.054
DNNYNTAETNNKVHETS [YDL088C/ASM4]	2.99 ± 0.078	2.92 ± 0.069	2.78 ± 0.052	2.81 ± 0.051
ECLPAEGHDWKAPTKLD [DIS3]	3.27 ± 0.098	3.21 ± 0.082	3.35 ± 0.071	3.23 ± 0.079
LAVSTILGKNFDSVIVE [SMC1]	2.86 ± 0.066	2.59 ± 0.064	2.44 ± 0.056	2.45 ± 0.047
DYNLRIYCYFLIMKLGR [SSN8]	1.23 ± 0.084	1.12 ± 0.098	1.36 ± 0.29	1.39 ± 0.11
LISIISSVIQNYDIITA [YML103C/NUP188]	1.81 ± 0.083	1.42 ± 0.1		1.3 ± 0.2
NLKLISVSLVDEFPSEL [SIR4]	2.57 ± 0.061	2.6 ± 0.052	2.5 ± 0.06	2.6 ± 0.033
AIVPGQSISGTLELSAQ [SWP82]	3.43 ± 0.094	3.13 ± 0.11	2.98 ± 0.14	3.07 ± 0.092
FMRQNLEWNMANLLFKK [RPC82]	2.82 ± 0.11	1.94 ± 0.055	2.49 ± 0.082	2.85 ± 0.063
IPSPLSSTKPPGSVNSA [NUT1]	2.76 ± 0.056	2.84 ± 0.058	2.86 ± 0.076	2.85 ± 0.044
AETDYVDPKRLAMVIIK [DSN1]	3.13 ± 0.066	3.35 ± 0.074	3.03 ± 0.056	3.53 ± 0.06
YTNSVELRSLSKKDFKI [YMR129W/POM152]	2.41 ± 0.057	2.64 ± 0.058	2.32 ± 0.078	2.92 ± 0.069
PDISRAVINIRDDGKRE [RPO31]	2.78 ± 0.083	2.29 ± 0.07	2.74 ± 0.11	2.77 ± 0.063
RRNLRYGDRMKLAKNLQ [RPO31]	3.15 ± 0.091	3.38 ± 0.073	3.48 ± 0.079	3.44 ± 0.067
KLKNNASRSQLEKGEIE [YJL039C/NUP192]	3.18 ± 0.11	2.98 ± 0.1	2.66 ± 0.083	3.08 ± 0.087
NLTAGIIVAGYDDKNKG [PRE3]	2 ± 0.071	2.75 ± 0.096	2.53 ± 0.12	2.16 ± 0.077
DFELEISWCSLSETNGL [PRE10]	2.92 ± 0.076	2.93 ± 0.094	2.84 ± 0.083	2.84 ± 0.069
DGLGNVVDFTSLPEELK [YMR129W/POM152]	3.4 ± 0.096	3.47 ± 0.1	3.3 ± 0.046	3.42 ± 0.095
DSSSVSEDSAVFKATSS [FAS1]	3 ± 0.089	3.32 ± 0.096	2.98 ± 0.065	3.14 ± 0.083
ALQKGLKDLMDLCDVVE [RPC19]	3.44 ± 0.24	2.84 ± 0.28	2.92 ± 0.13	3.02 ± 0.14
KVKLFHGILDDLETSLS [MED2]	3.17 ± 0.084	3.09 ± 0.075	3.14 ± 0.072	3.36 ± 0.055
ERKKSIGSQRGRRLSML [DSN1]	3.18 ± 0.11	2.53 ± 0.087	3.13 ± 0.098	2.92 ± 0.093
FRENMSKEETVDFIKHS [PRE3]	3.11 ± 0.086	3.19 ± 0.086	3.16 ± 0.066	3.24 ± 0.085
SDVLFEFTKINTPLVGA [YJL039C/NUP192]	1.66 ± 0.042	1.66 ± 0.045	1.45 ± 0.088	1.47 ± 0.037
